{"source": "paper PMC9309889", "about": "“Cryo-EM Structure of an Atypical Proton-Coupled Peptide Transporter: Di- and Tripeptide Permease C” (Frontiers in Molecular Biosciences, 2022)", "proteins": {"B1": {"name": "Di- and tripeptide permease C (DtpC), wild type (natural protein, Escherichia coli, UniProt P39276 1-485, looked up)", "chain": "MKTPSQPRAIYYIVAIQIWEYFSFYGMRALLILYLTHQLGFDDNHAISLFSAYASLVYVTPILGGWLADRLLGNRTAVIAGALLMTLGHVVLGIDTNSTFSLYLALAIIICGYGLFKSNISCLLGELYDENDHRRDGGFSLLYAAGNIGSIAAPIACGLAAQWYGWHVGFALAGGGMFIGLLIFLSGHRHFQSTRSMDKKALTSVKFALPVWSWLVVMLCLAPVFFTLLLENDWSGYLLAIVCLIAAQIIARMMIKFPEHRRALWQIVLLMFVGTLFWVLAQQGGSTISLFIDRFVNRQAFNIEVPTALFQSVNAIAVMLAGVVLAWLASPESRGNSTLRVWLKFAFGLLLMACGFMLLAFDARHAAADGQASMGVMISGLALMGFAELFIDPVAIAQITRLKMSGVLTGIYMLATGAVANWLAGVVAQQTTESQISGMAIAAYQRFFSQMGEWTLACVAIIVVLAFATRFLFSTPTNMIQESND", "notes": "Di- and tripeptide permease C (DtpC, YjdL) of Escherichia coli; full-length cDNA amplified from the E. coli genome, cloned into pNIC-CTHF; The His tag was cut off with TEV protease; also called YjdL; DtpC WT; source: E. coli C41(DE3), purified in DDM (Ni-NTA, TEV cleavage, negative IMAC, SEC); not shown: His-Tag, C-terminal, cleaved"}}, "biological_target": "the molecule itself", "test": "cryo-EM structure; DtpC-Nb26 complex in 0.015% DDM, 100 mM NaCl, 10 mM HEPES pH 7.5, 0.5 mM TCEP; inverted dimer at 3.0 Å, local focused refinement on one transporter at 2.7 Å", "data": [{"protein": "B1", "values": [{"measurement": "stoichiometry N", "value": 2}]}]}
